Test results as given in patent US20240317834A1, “COMPOSITIONS AND METHODS FOR NEUROLOGICAL DISEASES” (CODA BIOTHERAPEUTICS, INC., priority 2020, published 2024).
Residue numbers refer to the chain shown, from its start. Names may count otherwise.

System: Lenti-X 293T cells
Test: YFP fluorescence quenching anion reporter plate reader assay of engineered receptors stimulated with acetylcholine or a non-native ligand
Assay type: cell-based
Conditions: for percent quench of YFP fluorescence, 10 uM ach: acetylcholine 10 uM; for percent quench of YFP fluorescence, 100 uM ach: acetylcholine 100 uM; for percent quench of YFP fluorescence, 1 mM ach: acetylcholine 1 mM; for percent quench of YFP fluorescence, 3 mM ach: acetylcholine 3 mM
Description: To screen these mutant LGICs for those having novel response profiles to ligands, an anion reporter assay was developed to assess the function of the LGICs in a high throughput format. In this assay, cells expressing a YFP reporter whose fluorescence is quenched in the presence of anion are transfected with DNA encoding the channel of interest. Upon exposure to ligand, channels that are activated will flux anion, resulting in a dose-dependent quench of the YFP that can be detected on a plate reader. The greater the quench signal (i.e., the more positive the value), the higher the ligand activity on the receptor is.
Lenti-X 293T cells (LX293T, Clontech) were maintained in DMEM containing 10% FBS and 1% penicillin/streptomycin (Invitrogen). […] Two days before assay, cells were split at a density of 20,000 cells/well in a 96-well tissue culture plate coated with poly-d lysine (Thermo Scientific). The next day, the cells were transiently transfected with 0.1 μg of DNA per well using standard Fugene protocol (Promega). On the day of assay, cells were washed 2 times in 1× extracellular solution (1×ECS: 140 mM NaCl, 5 mM KCl, 1 mM MgCl2, 2 mM CaCl2), 10 mM HEPES, 10 mM glucose, pH 7.2, mOsms 300). After the last wash, 100 μL of 1×ECS was added to the wells and the plate was incubated at 37° C. for 30 min. While incubating the plate, the drugs were diluted to a 2× concentration in 1×ECS-NaI (same components as 1×ECS except the 140 mM NaCl was replaced by 140 mM NaI). The plates were then read on a Flexstation3 (Molecular Devices). Each well, 8 wells at a time, of the plate is read for 2 min using a Flexstation3 (Molecular Devices) as follows: 1) a baseline YFP fluorescence is read for 17 sec, 2) 100 μL of ligand is added, and 3) the changes in YFP fluorescence are then measured every 1.3 sec for 1 minute and 43 seconds. The percent quench is calculated from the average fluorescence of the last 10 seconds of the read divided by the baseline average of the first 15 seconds prior to the ligand addition.
FIGS. 1A-1J provide heat maps of the percent quench of YFP fluorescence following stimulation by various doses of either acetylcholine or the non-native ligand as indicated in the Figures. CODA71 (SEQ ID NO: 33) was used as a control, and CODA75 (SEQ ID NO: 29, a non-responding chimeric engineered receptor) was used as the negative control. Quenching of the fluorescence signal, as indicated by blue shaded cells, indicate the level of engineered receptor activation by the non-native ligand at that concentration.

B1: CODA282: engineered chimeric LGIC receptor, Y115D in SEQ ID NO: 33 (protein)
chain: MRCSPGGVWLALAASLLHVSLQGEFQRKLYKELVKNYNPLERPVANDSQPLTVYFSLSLLQIMDVDEKNQVLTTNIWLQMSWTDHYLQWNVSEYPGVKTVRFPDGQIWKPDILLDNSADERFDATFHTNVLVNSSGHCQYLPPGIFKSSCPMDLKNFPMDVQTCKLKFGSWSYGGWSLDLQMQEADISGYIPNGEWDLVGIPGKRSERFYECCKEPYPDVTFTVTMRRRMGYYLIQMYIPSLLIVILSWISFWINMDAAPARVGLGITTVLTMTTQSSGSRASLPKVSYVKAIDIWMAVCLLFVFSALLEYAAVNFVSRQHKELLRFRRKRRHHKSPMLNLFQEDEAGEGRFNFSAYGMGPACLQAKDGISVKGANNSNTTNPPPAPSKSPEEMRKLFIQRAKKIDKISRIGFPMAFLIFNMFYWIIYKIVRREDVHNQ
modifications: synthetic sequence of chimeric LGIC
- YFP fluorescence quenching using CNL001 (1 nM CNL001, first column): −15.837%
- YFP fluorescence quenching using CNL001 (1 nM CNL001, second column): −6.519%
- YFP fluorescence quenching using TC-5619/Bradanicline (1 nM brd): −0.54%
- YFP fluorescence quenching using TC-5619/Bradanicline (3 nM brd): −7.22%
- YFP fluorescence quenching using Varenicline (3 nM var, first column): 2.111
- YFP fluorescence quenching using Varenicline (3 nM var, second column): −12.265
- YFP fluorescence quenching using CNL001 (10 nM CNL001, first column): −4.862%
- YFP fluorescence quenching using CNL001 (10 nM CNL001, second column): −8.244%
- YFP fluorescence quenching using TC-5619/Bradanicline (10 nM brd): −2.82%
- YFP fluorescence quenching using TC-5619/Bradanicline (30 nM brd): −16.67%
- YFP fluorescence quenching using Facinicline (30 nM fac): 10.17
- YFP fluorescence quenching using Varenicline (30 nM var, first column): −4.433
- YFP fluorescence quenching using Varenicline (30 nM var, second column): −6.153
- YFP fluorescence quenching using CNL001 (50 nM CNL001, first column): −3.807%
- YFP fluorescence quenching using CNL001 (50 nM CNL001, second column): −2.871%
- YFP fluorescence quenching using ABT-126 (50 nM abt): −21.22%
- YFP fluorescence quenching using CNL001 (100 nM CNL001, first column): −7.924%
- YFP fluorescence quenching using CNL001 (100 nM CNL001, second column): 2.11%
- YFP fluorescence quenching using CNL002 (100 nM CNL002): −9.7%
- YFP fluorescence quenching using ABT-126 (100 nM abt): −19.7%
- YFP fluorescence quenching using AZD-0328 (100 nM azd0328): 3.19%
- YFP fluorescence quenching using TC-5619/Bradanicline (100 nM brd): −0.02%
- YFP fluorescence quenching using Facinicline (100 nM fac): 24.77
- YFP fluorescence quenching using ABT-126 (300 nM abt): −15.55%
- YFP fluorescence quenching using AZD-0328 (300 nM azd0328): 4.79%
- YFP fluorescence quenching using TC-5619/Bradanicline (300 nM brd): −12.37%
- YFP fluorescence quenching using Facinicline (300 nM fac): 51.04
- YFP fluorescence quenching using Varenicline (300 nM var, first column): −0.861
- YFP fluorescence quenching using Varenicline (300 nM var, second column): −1.308
- YFP fluorescence quenching using Varenicline (500 nM var, first column): 0.733
- YFP fluorescence quenching using Varenicline (500 nM var, second column): −4.633
- YFP fluorescence quenching using CNL001 (1 uM CNL001, first column): 11.047%
- YFP fluorescence quenching using CNL001 (1 uM CNL001, second column): 8.04%
- YFP fluorescence quenching using CNL002 (1 uM CNL002): −8.37%
- YFP fluorescence quenching using ABT-126 (1 uM abt): −14.31%
- YFP fluorescence quenching using TC-5619/Bradanicline (1 uM brd): 31.23%
- YFP fluorescence quenching using TC-6987 (1 uM tc6987): 13.01
- YFP fluorescence quenching using Varenicline (1 uM var, first column): −4.512
- YFP fluorescence quenching using Varenicline (1 uM var, second column): 0.02
- YFP fluorescence quenching using Facinicline (10 uM fac): 79.76
- YFP fluorescence quenching using TC-6987 (10 uM tc6987): 14.73
- YFP fluorescence quenching using CNL002 (30 uM CNL002): 3.4%
- YFP fluorescence quenching using AZD-0328 (30 uM azd0328): 76.78%
- YFP fluorescence quenching using Facinicline (30 uM fac): 81.7
- YFP fluorescence quenching using TC-6987 (500 uM tc6987): 14.29
- percent quench of YFP fluorescence, 30 nM TC-6683 (TC-6683 30 nM): 0.365%
- percent quench of YFP fluorescence, 300 nM TC-6683 (TC-6683 300 nM): −6.865%
- percent quench of YFP fluorescence, 3 uM TC-6683 (TC-6683 3 uM): −4.927%
- percent quench of YFP fluorescence, 30 uM TC-6683 (TC-6683 30 uM): −11.259%
- percent quench of YFP fluorescence, 100 uM TC-6683 (TC-6683 100 uM): −11.894%
- percent quench of YFP fluorescence, 10 uM ach: 6.81%
- percent quench of YFP fluorescence, 100 uM ach: 1.19%
- percent quench of YFP fluorescence, 1 mM ach: −14.05%
- percent quench of YFP fluorescence, 3 mM ach: 2.37%

B2: CODA283: engineered chimeric LGIC receptor, Y115E_N379K in SEQ ID NO: 33 (protein)
chain: B1 chain with D115E, N379K
modifications: synthetic sequence of chimeric LGIC
- YFP fluorescence quenching using CNL001 (1 nM CNL001, first column): −0.713%
- YFP fluorescence quenching using CNL001 (1 nM CNL001, second column): −0.621%
- YFP fluorescence quenching using TC-5619/Bradanicline (1 nM brd): 0.59%
- YFP fluorescence quenching using TC-5619/Bradanicline (3 nM brd): −6.41%
- YFP fluorescence quenching using CNL001 (10 nM CNL001, first column): 7.739%
- YFP fluorescence quenching using CNL001 (10 nM CNL001, second column): 15.277%
- YFP fluorescence quenching using TC-5619/Bradanicline (10 nM brd): −1.58%
- YFP fluorescence quenching using TC-5619/Bradanicline (30 nM brd): −14.24%
- YFP fluorescence quenching using Facinicline (30 nM fac): 6.39
- YFP fluorescence quenching using CNL001 (50 nM CNL001, first column): 19.489%
- YFP fluorescence quenching using CNL001 (50 nM CNL001, second column): 33.703%
- YFP fluorescence quenching using ABT-126 (50 nM abt): −22.65%
- YFP fluorescence quenching using CNL001 (100 nM CNL001, first column): 56.886%
- YFP fluorescence quenching using CNL001 (100 nM CNL001, second column): 60.171%
- YFP fluorescence quenching using CNL002 (100 nM CNL002): −5.81%
- YFP fluorescence quenching using ABT-126 (100 nM abt): −20.55%
- YFP fluorescence quenching using AZD-0328 (100 nM azd0328): −2.1%
- YFP fluorescence quenching using TC-5619/Bradanicline (100 nM brd): 33.36%
- YFP fluorescence quenching using ABT-126 (300 nM abt): −12.93%
- YFP fluorescence quenching using AZD-0328 (300 nM azd0328): 38.2%
- YFP fluorescence quenching using TC-5619/Bradanicline (300 nM brd): 43.81%
- YFP fluorescence quenching using Facinicline (300 nM fac): 78.36
- YFP fluorescence quenching using CNL001 (1 uM CNL001, first column): 69.836%
- YFP fluorescence quenching using CNL001 (1 uM CNL001, second column): 73.855%
- YFP fluorescence quenching using CNL002 (1 uM CNL002): 9.69%
- YFP fluorescence quenching using ABT-126 (1 uM abt): 1.71%
- YFP fluorescence quenching using TC-5619/Bradanicline (1 uM brd): 75.39%
- YFP fluorescence quenching using TC-6987 (1 uM tc6987): −9.54
- YFP fluorescence quenching using Facinicline (10 uM fac): 81.93
- YFP fluorescence quenching using TC-6987 (10 uM tc6987): −7.06
- YFP fluorescence quenching using CNL002 (30 uM CNL002): −12.85%
- YFP fluorescence quenching using AZD-0328 (30 uM azd0328): 79.44%
- YFP fluorescence quenching using Facinicline (30 uM fac): 78.63
- YFP fluorescence quenching using TC-6987 (500 uM tc6987): −15.15
- percent quench of YFP fluorescence, 10 uM ach: −6.16%
- percent quench of YFP fluorescence, 100 uM ach: −11.12%
- percent quench of YFP fluorescence, 1 mM ach: −2.74%
- percent quench of YFP fluorescence, 3 mM ach: 53.61%
